Test results reported in the supplement of paper PMC9732359.
± gives the uncertainty stated by the source.

Assay: protein stability index of a GFP-peptide fusion (yeast GPS) (PSI 1-4); higher = more stable; sorted into four equal gates, so the index is relative within each strain
How it was run: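 Tiled yeast protein peptides of 17 residues were each joined downstream of GFP, on plasmids that also express Cherry. The pooled library was maintained in yeast, and mid-log cultures in leucine-free medium were sorted into four equal gates on the GFP/Cherry ratio. Plasmids from every gate were amplified by PCR and sequenced on Illumina, with barcodes linking reads to strains. The protein stability index of a peptide is its gate-number-weighted read frequency summed over the gates.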

SHPEKRMIPPRMVRSIM [SSN3]
protein stability index (doa10∆): 3.25 ± 0.1 | protein stability index (pdr5∆): 3.01 ± 0.075 | protein stability index (san1∆): 2.33 ± 0.065 | protein stability index (ubr1∆): 3.19 ± 0.066

QQKQQQQQQQHQQQQQQ [SNF5]
protein stability index (doa10∆): 2.73 ± 0.033 | protein stability index (pdr5∆): 2.8 ± 0.03 | protein stability index (san1∆): 2.81 ± 0.029 | protein stability index (ubr1∆): 2.769 ± 0.026

LSGGGHDNHGNKLGNKR [CDC53]
protein stability index (ubr1∆): 3.65 ± 0.23

DLNPLKTLNLFKQIKSA [RPO31]
protein stability index (doa10∆): 2 ± 0.16 | protein stability index (pdr5∆): 1.37 ± 0.033 | protein stability index (san1∆): 2.62 ± 0.11 | protein stability index (ubr1∆): 2.15 ± 0.071

TRSQFCLNTQRGDSTET [RRI1]
protein stability index (doa10∆): 3.07 ± 0.094 | protein stability index (pdr5∆): 3.32 ± 0.094 | protein stability index (san1∆): 3.22 ± 0.063 | protein stability index (ubr1∆): 3 ± 0.076

QEAIQQNRRLAFEELEG [PRP8]
protein stability index (doa10∆): 2.24 ± 0.12 | protein stability index (pdr5∆): 2.62 ± 0.28 | protein stability index (san1∆): 2.74 ± 0.24 | protein stability index (ubr1∆): 2.75 ± 0.12

NNGNNSTSIQYHGISKN [POP6]
protein stability index (doa10∆): 2.48 ± 0.063 | protein stability index (pdr5∆): 2.51 ± 0.06 | protein stability index (san1∆): 2.65 ± 0.044 | protein stability index (ubr1∆): 2.22 ± 0.07

LTYLYEMKNIRGPYLVI [SNF2]
protein stability index (doa10∆): 1.22 ± 0.059 | protein stability index (pdr5∆): 1.32 ± 0.04 | protein stability index (san1∆): 1.27 ± 0.098 | protein stability index (ubr1∆): 1.22 ± 0.042

LQYANNAVISHANAAAV [SIN4]
protein stability index (doa10∆): 1.83 ± 0.047 | protein stability index (pdr5∆): 1.99 ± 0.041 | protein stability index (san1∆): 1.91 ± 0.049 | protein stability index (ubr1∆): 1.92 ± 0.03

GVAHLLNRFNFQNTNTR [QCR2]
protein stability index (doa10∆): 2.69 ± 0.084 | protein stability index (pdr5∆): 2.58 ± 0.086 | protein stability index (san1∆): 2.43 ± 0.15 | protein stability index (ubr1∆): 2.5 ± 0.062

YDALLSINVHSNNITSG [RET1]
protein stability index (doa10∆): 2.52 ± 0.061 | protein stability index (pdr5∆): 2.66 ± 0.057 | protein stability index (san1∆): 2.59 ± 0.059 | protein stability index (ubr1∆): 2.76 ± 0.04

AQKYASIVGVDLSSAAS [FAS2]
protein stability index (doa10∆): 2.13 ± 0.069 | protein stability index (pdr5∆): 2.21 ± 0.082 | protein stability index (san1∆): 1.66 ± 0.12 | protein stability index (ubr1∆): 1.75 ± 0.062

NNSEQDQEIVIQQLHSV [ISW2]
protein stability index (doa10∆): 2.48 ± 0.06 | protein stability index (pdr5∆): 2.59 ± 0.071 | protein stability index (san1∆): 2.2 ± 0.096 | protein stability index (ubr1∆): 2.53 ± 0.038

HHELVPKHIRLSSDEKR [RPB5]
protein stability index (doa10∆): 2.9 ± 0.12 | protein stability index (pdr5∆): 3.54 ± 0.12 | protein stability index (san1∆): 2.82 ± 0.18 | protein stability index (ubr1∆): 3.16 ± 0.073

ISIPKTCDEIQNFENDF [REC8]
protein stability index (doa10∆): 2.8 ± 0.077 | protein stability index (pdr5∆): 2.92 ± 0.068 | protein stability index (san1∆): 2.61 ± 0.056 | protein stability index (ubr1∆): 2.85 ± 0.046

LVLLELVSSGDRFIELI [YML103C/NUP188]
protein stability index (doa10∆): 2.56 ± 0.1 | protein stability index (pdr5∆): 2.08 ± 0.07 | protein stability index (san1∆): 2.21 ± 0.068 | protein stability index (ubr1∆): 2.3 ± 0.088

LEIASSIDCLLILILVI [SWI1]
protein stability index (doa10∆): 1.98 ± 0.07 | protein stability index (pdr5∆): 2.24 ± 0.046 | protein stability index (san1∆): 2.34 ± 0.074 | protein stability index (ubr1∆): 1.71 ± 0.035

FIYKKVLKEKDVPAYNV [SRB8]
protein stability index (doa10∆): 2.99 ± 0.086 | protein stability index (pdr5∆): 3.05 ± 0.062 | protein stability index (san1∆): 2.95 ± 0.058 | protein stability index (ubr1∆): 3.13 ± 0.042

ELVDMAGAGEANGTVVS [MTR3]
protein stability index (doa10∆): 2.98 ± 0.12 | protein stability index (pdr5∆): 3.11 ± 0.14 | protein stability index (ubr1∆): 3.05 ± 0.087

SYDFLPLSNIKALLFFN [RPN12]
protein stability index (doa10∆): 2.14 ± 0.047 | protein stability index (pdr5∆): 1.96 ± 0.048 | protein stability index (san1∆): 1.42 ± 0.08 | protein stability index (ubr1∆): 1.82 ± 0.044

EFGTYGKYVIAGHVSGV [RPN14]
protein stability index (doa10∆): 1.57 ± 0.14 | protein stability index (pdr5∆): 1.57 ± 0.22 | protein stability index (san1∆): 1.25 ± 0.3

GSIRVHKSGKLSVKIGN [RPC53]
protein stability index (doa10∆): 1.27 ± 0.052 | protein stability index (pdr5∆): 1.44 ± 0.047 | protein stability index (san1∆): 1.75 ± 0.068 | protein stability index (ubr1∆): 1.69 ± 0.04

KHWGGGILGNKAQAKMD [RPL8A]
protein stability index (doa10∆): 3.39 ± 0.13 | protein stability index (pdr5∆): 3.47 ± 0.11 | protein stability index (san1∆): 3.53 ± 0.066 | protein stability index (ubr1∆): 3.35 ± 0.087

HEIYGSMPLEQLIPIIL [SRB4]
protein stability index (doa10∆): 2.06 ± 0.06 | protein stability index (pdr5∆): 2.08 ± 0.068 | protein stability index (san1∆): 2.37 ± 0.08 | protein stability index (ubr1∆): 1.72 ± 0.059

NSLSSNLSSLIVEINNV [YJL041W/NSP1]
protein stability index (doa10∆): 2.26 ± 0.037 | protein stability index (pdr5∆): 2.58 ± 0.045 | protein stability index (san1∆): 2.35 ± 0.051 | protein stability index (ubr1∆): 2.41 ± 0.033

EDAIHIALLTLKESVEG [PRE8]
protein stability index (doa10∆): 2.94 ± 0.092 | protein stability index (pdr5∆): 2.87 ± 0.085 | protein stability index (san1∆): 2.94 ± 0.069 | protein stability index (ubr1∆): 2.92 ± 0.076

SDSLGPDTSNEICDLAY [SRB2]
protein stability index (doa10∆): 2.95 ± 0.065 | protein stability index (pdr5∆): 3.17 ± 0.064 | protein stability index (san1∆): 3.29 ± 0.065 | protein stability index (ubr1∆): 3.31 ± 0.049

RGKKGLKKKVVDPFTRK [RPS1B]
protein stability index (doa10∆): 3.73 ± 0.15 | protein stability index (pdr5∆): 3.34 ± 0.082 | protein stability index (san1∆): 3.35 ± 0.074 | protein stability index (ubr1∆): 3.27 ± 0.088

IINFGEIEQNTELLDEF [RPN10]
protein stability index (doa10∆): 3.25 ± 0.1 | protein stability index (pdr5∆): 3.42 ± 0.083 | protein stability index (san1∆): 3.23 ± 0.07 | protein stability index (ubr1∆): 3.17 ± 0.072

DKLTSIQDTLRTGSQSP [MED7]
protein stability index (doa10∆): 2.7 ± 0.042 | protein stability index (pdr5∆): 2.82 ± 0.045 | protein stability index (san1∆): 2.69 ± 0.032 | protein stability index (ubr1∆): 2.89 ± 0.033

DKPYLLRIVTHLAICLD [YDL116W/NUP84]
protein stability index (doa10∆): 1.33 ± 0.078 | protein stability index (pdr5∆): 1.28 ± 0.08 | protein stability index (san1∆): 1.32 ± 0.13 | protein stability index (ubr1∆): 1.58 ± 0.058

ALKDPQTDADRVKDPQW [RIP1]
protein stability index (doa10∆): 3.26 ± 0.081 | protein stability index (pdr5∆): 3.68 ± 0.23 | protein stability index (san1∆): 3.18 ± 0.25 | protein stability index (ubr1∆): 3.6 ± 0.16

ASAGSKEGASTNWDDHA [YMR153W/NUP53]
protein stability index (doa10∆): 3.26 ± 0.13 | protein stability index (pdr5∆): 3.49 ± 0.14 | protein stability index (san1∆): 3.27 ± 0.077 | protein stability index (ubr1∆): 3.42 ± 0.11

RSIMKNRSVVYFKLDLT [RRI2]
protein stability index (pdr5∆): 1.58 ± 0.22

RNEKRMFLEFQSTQTDL [SMC2]
protein stability index (doa10∆): 2.53 ± 0.19 | protein stability index (pdr5∆): 2.48 ± 0.19 | protein stability index (san1∆): 3.24 ± 0.14 | protein stability index (ubr1∆): 2.61 ± 0.12

DFDDFLKLGLVEYLDVN [RET1]
protein stability index (doa10∆): 3.01 ± 0.092 | protein stability index (pdr5∆): 3.07 ± 0.1 | protein stability index (san1∆): 3 ± 0.11 | protein stability index (ubr1∆): 3.06 ± 0.1

ENSAVAAKEGLALSSNI [COR1]
protein stability index (doa10∆): 1.84 ± 0.065 | protein stability index (pdr5∆): 2.66 ± 0.064 | protein stability index (san1∆): 2.49 ± 0.084 | protein stability index (ubr1∆): 2.17 ± 0.053

KTIQINNEKVVQYLRSV [YML031W/NDC1]
protein stability index (doa10∆): 3.23 ± 0.17 | protein stability index (pdr5∆): 3.24 ± 0.12

VTEETTKQIQSVRIDGR [SIR4]
protein stability index (doa10∆): 2.31 ± 0.086 | protein stability index (pdr5∆): 3.06 ± 0.077 | protein stability index (san1∆): 2.83 ± 0.066 | protein stability index (ubr1∆): 2.12 ± 0.074

SGQTFAYGVLDSNYKWD [PRE2]
protein stability index (doa10∆): 2.39 ± 0.075 | protein stability index (pdr5∆): 2.76 ± 0.098 | protein stability index (san1∆): 1.85 ± 0.14 | protein stability index (ubr1∆): 2.7 ± 0.11

TNVPKAKKRKTLILIQN [SIR3]
protein stability index (doa10∆): 1.67 ± 0.18 | protein stability index (pdr5∆): 1.63 ± 0.12 | protein stability index (san1∆): 1.33 ± 0.22 | protein stability index (ubr1∆): 1.4 ± 0.1

KMATDNKINSRNSWNFA [BRN1]
protein stability index (pdr5∆): 2.94 ± 0.12 | protein stability index (ubr1∆): 1.92 ± 0.12

HGLKQLRDSLADKIVDE [NUT2]
protein stability index (doa10∆): 3.11 ± 0.083 | protein stability index (pdr5∆): 2.13 ± 0.077 | protein stability index (san1∆): 1.52 ± 0.071 | protein stability index (ubr1∆): 2.3 ± 0.055

RNSNPENTVGLISGAGA [RPN10]
protein stability index (doa10∆): 2.93 ± 0.11 | protein stability index (pdr5∆): 2.81 ± 0.074 | protein stability index (san1∆): 2.6 ± 0.067 | protein stability index (ubr1∆): 2.06 ± 0.069

QSSRVVSLSQLLFIVGQ [YCS4]
protein stability index (doa10∆): 1.75 ± 0.063 | protein stability index (pdr5∆): 1.33 ± 0.048 | protein stability index (san1∆): 1.83 ± 0.11 | protein stability index (ubr1∆): 1.4 ± 0.054

GRNIGHPIIQDKEGNGV [RPB3]
protein stability index (doa10∆): 3.52 ± 0.17 | protein stability index (pdr5∆): 3.24 ± 0.13 | protein stability index (san1∆): 3.04 ± 0.1 | protein stability index (ubr1∆): 3.15 ± 0.13

HYPEIEDLVDRIENPEK [RPP0]
protein stability index (doa10∆): 2.84 ± 0.1 | protein stability index (pdr5∆): 3.17 ± 0.081 | protein stability index (san1∆): 2.97 ± 0.12 | protein stability index (ubr1∆): 3.05 ± 0.072

RTPVPSTLMPGGVDVGP [SNF5]
protein stability index (pdr5∆): 3 ± 0.15 | protein stability index (san1∆): 2.73 ± 0.17

QANPTEESISKFPDMGS [RPB5]
protein stability index (doa10∆): 3.23 ± 0.082 | protein stability index (pdr5∆): 3.26 ± 0.076 | protein stability index (san1∆): 3.04 ± 0.074 | protein stability index (ubr1∆): 3.26 ± 0.087

IEKSRLFSEKTIRYLMQ [SNF6]
protein stability index (doa10∆): 1.82 ± 0.069 | protein stability index (pdr5∆): 2.29 ± 0.048 | protein stability index (san1∆): 2.28 ± 0.084 | protein stability index (ubr1∆): 1.86 ± 0.055

VSNKFEKIFHYGHVFLG [PUP3]
protein stability index (doa10∆): 2.94 ± 0.28

QIISGNRVPDGFQDRSL [RPO31]
protein stability index (doa10∆): 3.17 ± 0.13 | protein stability index (pdr5∆): 3.13 ± 0.13 | protein stability index (san1∆): 3.06 ± 0.08 | protein stability index (ubr1∆): 3.38 ± 0.2

DYSRKQLGYGKFLILNE [NUT1]
protein stability index (doa10∆): 2.97 ± 0.2 | protein stability index (pdr5∆): 2.31 ± 0.14 | protein stability index (ubr1∆): 3.18 ± 0.22

KPNQTIMVLDASIGQAA [SRP54]
protein stability index (doa10∆): 2.44 ± 0.095 | protein stability index (pdr5∆): 2.65 ± 0.075 | protein stability index (san1∆): 2.69 ± 0.07 | protein stability index (ubr1∆): 2.64 ± 0.049

KKMTKKAKRSNLYTPKA [PRP8]
protein stability index (doa10∆): 2.9 ± 0.059 | protein stability index (pdr5∆): 2.19 ± 0.038 | protein stability index (san1∆): 2.39 ± 0.059 | protein stability index (ubr1∆): 2.3 ± 0.031
